Laboratory results published in patent US20130039917A1.

Molecular target: PRELP expressed on the cell surface of human cancer cells (human), P51888
Experiment: cell-based or functional assay

PRELP expressed on the cell surface of human cancer cells (human), P51888, sequence (P51888 21-382): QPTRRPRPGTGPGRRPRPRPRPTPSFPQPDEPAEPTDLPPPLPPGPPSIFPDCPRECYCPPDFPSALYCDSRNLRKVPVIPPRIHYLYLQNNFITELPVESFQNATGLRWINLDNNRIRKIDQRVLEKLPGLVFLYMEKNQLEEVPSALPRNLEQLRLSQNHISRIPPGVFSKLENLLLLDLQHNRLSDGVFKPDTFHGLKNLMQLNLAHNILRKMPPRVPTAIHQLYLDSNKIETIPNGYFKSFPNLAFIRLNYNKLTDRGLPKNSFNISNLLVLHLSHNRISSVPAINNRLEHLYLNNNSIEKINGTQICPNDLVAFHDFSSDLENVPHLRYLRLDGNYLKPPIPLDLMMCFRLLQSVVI

apoptosis (Annexin V-FITC and propidium iodide staining) of CLL cells, 18 hrs, 2.5 ug antibody: 16.9%
apoptosis (Annexin V-FITC and propidium iodide staining) of CLL cells, 18 hrs, 5 ug antibody: 32.2%
apoptosis (Annexin V-FITC and propidium iodide staining) of CLL cells, 18 hrs, 7.5 ug antibody: 39.2%
B1: anti-PRELP-SS clone 6G1-G11 (antibody, mouse IgM, V domains shown)
VH: EVKLQQSGAELVKPGASVKLSCTASGFNIKDTYMHWVKQRPEQGLEWIGRIDPANGNTKYDPKFQGKATITADTSSNTAYLQLSSLTSEDTAVYYCARSTTVVVDYWGQGTTLTVSS
VL: DILLTQTPAIKSASPGEKVTMTCSASSSISYMHWYQQKPGTSPKRWIYDTSKLASGVPARFSGSGSGTSYSLTISSMEAEDAATYYCHQRSSYPTFGAGTKLELK
